Results on 21 molecules are retold here after US20260035432A1 (PRECIGEN, published 2026).

Substitutions are numbered along the chain they refer to. In names and notes the source's numbering stands.

Assay [1] deals with Signal peptide CD28, Stalk CD8α. Briefly: flow cytometry of T cells nucleofected with the CAR construct, Day 1, Protein L-biotin + SA-APC against CD3-FITC; the filing reports it as CAR surface expression (legend: the short CD8α stalk does not permit surface expression).
Assay [2] deals with Signal peptide CD8α, Stalk CD8α. The assay is described as above.
Assay [3] concerns the target Signal peptide Ig Kappa, Stalk CD8α. The assay is described as above.
The target of assay [4] is Signal peptide mIgVH, Stalk CD8α. The description is as above.
The target in assay [5] is Extracellular domain (ECD) of ROR1 fused to human Fc region (UniProt Q01973). Briefly: ROR1-Fc affinity of the construct's binding domain; method not given.
The target in assay [6] is T1, ROR1-His (UniProt Q01973 30-403, limits assumed).
T1 construct: The construct is described nowhere; not shown: His tag
The experiment in a line: ROR1-His affinity of the construct's binding domain; method not given.

Assay [7] has as its target Extracellular domain (ECD) of ROR1 fused to human Fc region (UniProt Q01973). The experiment in a line: SPR, Biacore 3000; ROR1 ECD-human Fc on CM5 chip, antibody in solution; ROR1 ECD-human Fc on the chip per paragraph 451; same number stands under ROR1-His in Table 9. A general note: Surface plasmon resonance follows binding to a sensor surface in real time, without labels.

Assay [8] has the same target. The experiment in a line: SPR, Biacore 3000; ROR1 ECD-human Fc on CM5 chip, antibody in solution.
Assay [9] concerns the target T2, Extracellular domain (ECD) of ROR1 fused to human Fc region (UniProt Q01973 30-406, limits assumed).
T2 construct: extracellular domain; also called ROR1-Fc; ROR1-FC; not shown: human Fc region
The description is as above. Here is the method: Different concentrations of humanized antibodies were injected in solution phase and data was analyzed using BIAevaluation to calculate Kd of the antibodies.

For assay [10], the target named is T1, ROR1-His. Briefly: ROR1-His affinity of the construct's binding domain; method not given; ROR1-His column, not ROR1-Fc (2.31E-08).

T1 sequence (Q01973 30-403 limits assumed): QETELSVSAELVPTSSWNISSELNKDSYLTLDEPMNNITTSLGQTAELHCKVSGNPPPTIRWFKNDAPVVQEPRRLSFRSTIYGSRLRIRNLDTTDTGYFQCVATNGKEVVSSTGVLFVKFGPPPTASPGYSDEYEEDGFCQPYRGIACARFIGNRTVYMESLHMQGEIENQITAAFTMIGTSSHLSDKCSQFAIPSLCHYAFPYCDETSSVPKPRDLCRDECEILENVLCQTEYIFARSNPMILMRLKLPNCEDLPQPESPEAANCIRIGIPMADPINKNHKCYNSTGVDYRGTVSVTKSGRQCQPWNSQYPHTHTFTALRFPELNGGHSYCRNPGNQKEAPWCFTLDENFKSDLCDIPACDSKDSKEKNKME
Sequence of Extracellular domain (ECD) of ROR1 fused to human Fc region (UniProt Q01973) (Q01973 30-406 limits assumed): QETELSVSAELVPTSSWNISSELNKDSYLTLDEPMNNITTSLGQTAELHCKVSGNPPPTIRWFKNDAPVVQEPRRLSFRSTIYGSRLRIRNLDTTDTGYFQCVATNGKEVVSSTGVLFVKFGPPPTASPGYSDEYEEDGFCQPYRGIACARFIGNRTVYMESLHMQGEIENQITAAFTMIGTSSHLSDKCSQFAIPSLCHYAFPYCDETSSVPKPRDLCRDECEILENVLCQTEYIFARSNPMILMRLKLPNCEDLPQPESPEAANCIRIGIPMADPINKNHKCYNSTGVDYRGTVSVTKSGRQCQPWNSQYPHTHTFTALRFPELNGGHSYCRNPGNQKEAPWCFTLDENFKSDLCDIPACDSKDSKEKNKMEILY
T2 sequence (Q01973 30-406 limits assumed): as above

As for Protein L-biotin, the fraction in quadrant Q6 (Protein L-biotin-SA-APC+, CD3-FITC+) in assay [1] came out at 2.6; in [2], 1.88; in [3], 2.53; in assay [4] it was 2.13.

B1: Hum ROR1_05VH_(G4S)3x_VL_14 (antibody, mouse IgG1, V domains shown)
VH: EVQLVESGGGLVQPGGSLRLSCAASGFTFSSYAMSWVRQAPGKGLEWVSSISRGGTTYYPDSVKGRFTISRDNSKNTLYLQMNSLRAEDTAVYYCGRYDYDGYYAMDYWGQGTLVTVSS
VL: DIQMTQSPSSLSASVGDRVTITCKASPDINSYLNWYQQKPGKAPKLLIYRANRLVDGVPSRFSGSGSGTDYTLTISSLQPEDFATYYCLQYDEFPYTFGAGTKVEIK
notes: The name reads as an scFv with a (G4S)3 linker; The method text says variable regions were fused to mouse constant regions (chimeric mouse IgG1); VH/VL are tied by the numbers in the name
In general, Kd refers to the equilibrium constant for the complex coming apart. Low readings indicate a tighter complex, high ones a looser complex. Take B1: the Kd in assay [5] worked out at 0.193 nM; in assay [6] it was 0.355 nM; in [7], 0.355 nM.

B2: Hum ROR1_18VH_(G4S)3x_VL_04 (antibody, mouse IgG1, V domains shown)
VH: EVQLVESGGGLVQPGGSLRLSCSASGFTFSSYAMSWVRQVPGKGLVWISSISRGGTTYYADSVRGRFIISRDNAKNTLYLEMNNLRGEDTAVYYCARYDYDGYYAMDYWGQGTLVTVSS
VL: B1 VL with K24Q, R53N, V55E, D56T, Y71F, F83I, A100Q, V104L
notes: as for B1
For the molecule B2, the Kd in [8] is 0.372 nM; in assay [5], 0.271 nM; in [6] it was 0.372 nM.

B3: Hum ROR1_18VH_(G4S)3x_VL_16 (antibody, mouse IgG1, V domains shown)
VH: B2 VH
VL: B1 VL with L46V, A100Q
notes: as for B1
B3 had a Kd in assay [9] of 1.6 nM.

B4: Hum ROR1_07VH_(G4S)3x_VL_18 (antibody, mouse IgG1, V domains shown)
VH: B1 VH with M34I, S35I, S49A, S50R, Y58R, P60A, R71A, N73T, N76E, L78A
VL: DIQLTQSPDSLAVSLGERATINCKASPDINSYLSWYQQRPGQPPRLLIHRANRLVDGVPDRFSGSGFGTDFTLTITSLQAEDVAIYYCLQYDEFPYTFGQGTKLEIK
notes: as for B1
As for B4, binding in assay [9] was characterised by a dissociation constant (Kd) of 11.7 nM.

B5: Clone 07 (antibody, V domains shown)
VH: B1 VH with M34I, S35I, S49A, S50R, Y58R, P60A, R71A, N73T, N76E, L78A
VL: B1 VL with K24R, L33V, N34A, R53F, V55E, D56S, G66R, Y71F, A100Q
notes: Variable regions fused to mouse constant regions (chimeric mouse IgG1 mAb) for SPR; also called hROR1 VH_07 / hROR1 VL_07
Take B5: the Kd in assay [9] is around 90 nM.

B6: Hum ROR1_18VH_(G4S)3x_VL_07 (antibody, mouse IgG1, V domains shown)
VH: B2 VH
VL: B1 VL with K24R, L33V, N34A, R53F, V55E, D56S, G66R, Y71F, A100Q
notes: as for B1
With B6, the Kd in assay [9] came to 3.87 nM.

B7: Hum ROR1_07VH_(G4S)3x_VL_05 (antibody, mouse IgG1, V domains shown)
VH: B1 VH with M34I, S35I, S49A, S50R, Y58R, P60A, R71A, N73T, N76E, L78A
VL: B1 VL with N34S, Y71F, F83I, A100Q, V104L
notes: as for B1
B7 yielded a Kd in assay [9] of 7.16 nM.

B8: Hum_design_14_variant4 (antibody, V domains shown)
VH: B1 VH with S49A, S74V, K75R, T77I, N83S, A87S, V92M
VL: B1 VL
notes: Variable regions fused to mouse constant regions (chimeric mouse IgG1 mAb) for SPR; also called hROR1 VH_14-4 / hROR1 VL_14-4
Turning to B8, the Kd amounted to 0.408 nM in assay [8], 0.284 nM in assay [5] and 0.408 nM in assay [6].

B9: Clone 16 (antibody, V domains shown)
VH: B1 VH with S49A, P60D, D61P, S62K, V63F, K64Q, G65D, F67A, R71A, L78A
VL: B1 VL with L46V, A100Q
notes: Variable regions fused to mouse constant regions (chimeric mouse IgG1 mAb) for SPR; also called hROR1 VH_16 / hROR1 VL_16
In assay [9], B9 gave a Kd of 3.03 nM.

B10: Hum ROR1_14VH_(G4S)3x_VL_16 (antibody, mouse IgG1, V domains shown)
VH: B1 VH with A24T, V37M, S49A, P60A, R71V, N73K
VL: B1 VL with L46V, A100Q
notes: as for B1
In turn, B10 returned a Kd in assay [9] of 131 nM.

B11: Hum ROR1_07VH_(G4S)3x_VL_16 (antibody, mouse IgG1, V domains shown)
VH: B1 VH with M34I, S35I, S49A, S50R, Y58R, P60A, R71A, N73T, N76E, L78A
VL: B1 VL with L46V, A100Q
notes: as for B1
B11 yielded a Kd in assay [9] of 4.08 nM.

B12: Hum ROR1_18VH_(G4S)3x_VL_14 (antibody, mouse IgG1, V domains shown)
VH: B2 VH
VL: B1 VL
notes: as for B1
B12: the Kd in assay [8] was found to be 0.209 nM; in assay [5], 0.201 nM; in assay [6], 0.209 nM.

B13: Clone 05 (antibody, V domains shown)
VH: B1 VH
VL: B1 VL with N34S, Y71F, F83I, A100Q, V104L
notes: Variable regions fused to mouse constant regions (chimeric mouse IgG1 mAb) for SPR; also called hROR1 VH_05 / hROR1 VL_05
Turning to B13, the Kd worked out at 35 nM in [8], 35 nM in assay [5] and 37.4 nM in [6].

B14: Clone 04 (antibody, V domains shown)
VH: B1 VH with S50A, P60A
VL: B1 VL with K24Q, R53N, V55E, D56T, Y71F, F83I, A100Q, V104L
notes: Variable regions fused to mouse constant regions (chimeric mouse IgG1 mAb) for SPR; also called hROR1 VH_04 / hROR1 VL_04
In [9], B14 came in with a Kd of around 55 nM.

B15: Hum ROR1_05VH_(G4S)3x_VL_16 (antibody, mouse IgG1, V domains shown)
VH: B1 VH
VL: B1 VL with L46V, A100Q
notes: as for B1
Turning to B15, the Kd in [8] is 0.337 nM; in assay [5], 0.273 nM; in [6], 0.337 nM.

B16: Hum_design_14_variant3 (antibody, V domains shown)
VH: B1 VH with S49A, P60A
VL: B1 VL with Y71F, F83I, A100G
notes: Variable regions fused to mouse constant regions (chimeric mouse IgG1 mAb) for SPR; also called hROR1 VH_14-3 / hROR1 VL_14-3
As for B16, the results for the Kd in [8], in [5] and in assay [6] were 1.3 nM, 0.959 nM and 1.3 nM, respectively.

B17: Hum_design_14_variant5 (antibody, V domains shown)
VH: B1 VH with A24T, V37M, Q39K, W47Y, S49A, P60A, R71V, N73K
VL: B1 VL
notes: Variable regions fused to mouse constant regions (chimeric mouse IgG1 mAb) for SPR; also called hROR1 VH_14-5 / hROR1 VL_14-5
B17 showed a Kd in [9] of 4.52 nM. This lies in the single-digit nanomolar range.

B18: Clone 14 (antibody, V domains shown)
VH: B1 VH with A24T, V37M, S49A, P60A, R71V, N73K
VL: B1 VL
notes: Variable regions fused to mouse constant regions (chimeric mouse IgG1 mAb) for SPR; also called hROR1 VH_14 / hROR1 VL_14
B18: the Kd in assay [8] and in assay [6] was 1.45 nM in each case.

B19: Murine ROR1_v2 binding domain (VL and VH of MurineROR1_v2 (VL-VH)) (antibody, V domains shown)
VH: EVKLVESGGGLVKPGGSLKLSCAASGFTFSSYAMSWVRQIPEKRLEWVASISRGGTTYYPDSVKGRFTISRDNVRNILYLQMSSLRSEDTAMYYCGRYDYDGYYAMDYWGQGTSVTVSS
VL: DVQITQSPSSLYASLGERVTITCKASPDINSYLSWFQQKPGKSPKTLIYRANRLVDGVPSRFSGGGSGQDYSLTINSLEYEDMGIYYCLQYDEFPYTFGGGTKLEMK
notes: also called Murine ROR1_v2 VH; murine ROR1 scFv
For the molecule B19, the Kd in [5] is 23.1 nM; in [10], 70.7 nM.

B20: Clone 18 (antibody, V domains shown)
VH: B2 VH
VL: B4 VL
notes: Variable regions fused to mouse constant regions (chimeric mouse IgG1 mAb) for SPR; also called hROR1 VH_18 / hROR1 VL_18
B20 registered a Kd in [9] of 12.7 nM.
